Assay results: US20070178531A1 (BIOCHECK, published 2007)
Positions count from the first letter of the chain named.

T1: Mouse Id1: Histidine (mouse, UniProt P20067-2 1-148, limits assumed)
T1 construct: Fusion protein made in E. coli from vector pGW07; also called m-Id1-His; not shown: His tag
T1 sequence (looked up): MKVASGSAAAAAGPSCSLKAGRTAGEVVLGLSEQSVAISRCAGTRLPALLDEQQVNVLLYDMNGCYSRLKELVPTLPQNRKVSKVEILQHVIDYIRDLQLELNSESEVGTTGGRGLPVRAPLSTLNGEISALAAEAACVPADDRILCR

T2: Human Id2: Histidine (human, UniProt Q02363 1-134, limits assumed)
T2 construct: Fusion protein made in E. coli from vector pGW07; also called h-Id2: His; not shown: His tag
T2 sequence (looked up): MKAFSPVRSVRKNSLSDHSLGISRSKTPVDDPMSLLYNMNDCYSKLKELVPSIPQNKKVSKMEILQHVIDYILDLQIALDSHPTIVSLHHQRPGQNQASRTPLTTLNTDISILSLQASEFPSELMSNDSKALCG

T3: Human Id1: Histidine (human, UniProt P41134 1-155, limits assumed)
T3 construct: Fusion protein made in E. coli from vector pGW07; also called h-Id1: his; not shown: His tag
T3 sequence (looked up): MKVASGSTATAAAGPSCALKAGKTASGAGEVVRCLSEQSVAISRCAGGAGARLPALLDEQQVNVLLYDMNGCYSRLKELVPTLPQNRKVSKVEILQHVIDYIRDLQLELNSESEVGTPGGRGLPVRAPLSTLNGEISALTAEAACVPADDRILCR

T4: Human Id3: Histidine (human, UniProt Q02535 1-119 at identity 1.00))
T4 construct: Fusion protein made in E. coli from vector pGW07; also called h-Id3: His; Human Id3 (coated wells); not shown: His tag
T4 chain: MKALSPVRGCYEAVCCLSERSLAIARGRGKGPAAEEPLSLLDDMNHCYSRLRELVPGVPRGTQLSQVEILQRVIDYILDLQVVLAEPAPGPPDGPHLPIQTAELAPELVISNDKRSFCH

T5: Mouse Id2: Histidine (mouse, UniProt P41136 1-134, limits assumed)
T5 construct: Fusion protein made in E. coli from vector pGW07; also called m-Id2: His; not shown: His tag
T5 sequence (looked up): T2 sequence (looked up) with S60T, A131V

T6: Mouse Id3: Histidine (mouse, UniProt P41133 1-119)
T6 construct: Fusion protein made in E. coli from vector pGW07; also called m-Id3: His; Mouse Id3 (coated wells); not shown: His tag
T6 sequence: T4 chain with G31S, A33S, A34T, A105T, N112K

B1: rabbit monoclonal anti-human Id3, clone #BCH-4/#3-3 (antibody, V domains shown)
VH: QSVEESGGRLVTPGTPLTLTCTVSGIDLSSYAMSWVRQAPGKGLEWIGVIFPSNNVYYASWAKGRFTISKTSTTVDLKITSPTTEDTATYFCASMGAFDSWGPGTLVTVSS
VL: QVLTQTPSPVSAAVGGTVTINCQASQSIYNDNDLAWFQQKPGQPPKLLIYDASTLTSGVPSRFKGSGSGTQFTLTISDLDCDDAATYYCAARYSGNIYGFGGGTEVVVK
notes: Rabbit IgG from a rabbit hybridoma; also called h Id3 MoAb 3-3
B2: rabbit monoclonal anti-mouse/human Id3, clone #BCH-4/#6-1 (antibody, V domains shown)
VH: QSVEESGGRLVTPGTPLTLTCTASGFSLSNVYIHWVRQAPGKGLEWIGYISDGDTARYATWAKGRFTISKTSSTTVNLKMTSLTTEDTATYFCARQGFNIWGPGTLVTVSL
VL: AVLTQTPSPVSAAVGGTVSISCQSSQSVWNNNWLSWFQQKPGQPPKLLIYETSKLESGVPSRFKGSGSGTQFTLTISDVQCDDAATYYCLGGYWTTSDNNVFGGGTEVVVK
notes: Rabbit IgG from a rabbit hybridoma; also called m/h Id3 MoAb 6-1

How the values were obtained:
[1] = biological target: T1, Mouse Id1: Histidine; assay: ELISA on coated wells, summary
[2] = biological target: T2, Human Id2: Histidine; assay: ELISA on coated wells, summary
[3] = biological target: T3, Human Id1: Histidine; assay: ELISA on coated wells, summary
[4] = biological target: T1, Mouse Id1: Histidine; assay: ELISA, Ab 0.010 µg/ml
[5] = biological target: T4, Human Id3: Histidine; assay: ELISA, Ab 0.010 µg/ml
[6] = biological target: T2, Human Id2: Histidine; assay: ELISA, Ab 0.010 µg/ml
[7] = biological target: T3, Human Id1: Histidine; assay: ELISA, Ab 0.010 µg/ml
[8] = biological target: T5, Mouse Id2: Histidine; assay: ELISA, Ab 0.010 µg/ml
[9] = biological target: T6, Mouse Id3: Histidine; assay: ELISA, Ab 0.010 µg/ml
[10] = biological target: T1, Mouse Id1: Histidine; assay: ELISA, positive control (stated to be BCH-4/6-1) 0.50 µg/ml
Protocol: (§1) 1. Dispense 100 μL of antibody diluent, diluted rabbit monoclonal human Id3, and mouse/human Id3 hybridoma supernatants into appropriate wells. […] 2. Incubate at room temperature with mechanical shaking at 750 rpm for 90 minutes. [0165] 3. Remove the incubation mixture by flicking plate content into an appropriate waste container followed by rinsing the wells 5 times with distilled water. [0166] 4. Strike the wells sharply onto absorbent paper or paper towels to remove all residual water droplets. [0167] 5. Dispense 100 μL of 1:50,000 Goat Anti-Rabbit IgG-HRP Conjugate Reagent into each well. Gently mix for 5 seconds. [0168] 6. Incubate at room temperature with mechanical shaking at 750 rpm for 90 minutes. [0169] 7. Repeat procedures 3 and 4. [0170] 8. Dispense 100 μL of TMB Reagent into each well. Gently mix for 5 seconds. [0171] 9. Incubate at room temperature with mechanical shaking at 750 rpm for 20 minutes. […] 10. Add 100 μL of Stop Solution (1N HCl) into each well. [0173] 11. Gently mix for 10 seconds to ensure a complete mixing. [0174] 12. Read optical density at A450 nm.
(§2) The materials and method are the same as those described in Example 9 except the following.
(§3) Rabbit monoclonal anti-mouse Id3, hybridoma supernatant was used as the test antibody. Protein G purified, rabbit monoclonal anti-mouse/human Id3 antibody, BCH-4/6-1, 0.92 mg/ml in 0.25% BSA was used as positive controls.

[11] = biological target: T4, Human Id3: Histidine; assay: as above
Protocol: as §1, §2, §3

[12] = biological target: T2, Human Id2: Histidine; assay: as above
Protocol: as §1, §2, §3

[13] = biological target: T3, Human Id1: Histidine; assay: as above
Protocol: as §1, §2, §3

[14] = biological target: T5, Mouse Id2: Histidine; assay: as above
Protocol: as §1, §2, §3

[15] = biological target: T6, Mouse Id3: Histidine; assay: as above
Protocol: as §1, §2, §3

Binder	Cross-reactivity (%) [1]	Cross-reactivity (%) [2]	Cross-reactivity (%) [3]	A450 [4]	A450 [5]	A450 [6]	A450 [7]	A450 [8]	A450 [9]	A450 [10]	A450 [11]	A450 [12]	A450 [13]	A450 [14]	A450 [15]
B1	< 1%	< 1%	< 1%												
B2				0.079 A450	0.48 A450	0.071 A450	0.078 A450	0.071 A450	0.53 A450	2.2 A450	2.83 A450	3.23 A450	2.13 A450	3.1 A450	3.18 A450
